Starred links: 1 amine or outer side, 2 acyl side, 3 side chain; linkers in the order of their positions; H or OH if unused. Non-standard residues stand in square brackets, D forms with d. Groups on a side chain read outwards from the residue. No end group written: not given here. *: point of attachment. C20 diacid = O=C(O)CCCCCCCCCCCCCCCCCCC(=O)*; C18 diacid = O=C(O)CCCCCCCCCCCCCCCCC(=O)*; αMePhe(2-F) = C[C@](N)(Cc1ccccc1F)C(=O)O; γGlu = O=C(O)[C@H](CCC(=O)[*:2])N[*:1]; 4Pal = N[C@@H](Cc1ccncc1)C(=O)O; αMeL = CC(C)C[C@](C)(N)C(=O)O; Orn = NCCC[C@H](N)C(=O)O; AEEA = NCCOCCOCC(=O)O; Aib = CC(C)(N)C(=O)O
T1: human glucose-dependent insulinotropic polypeptide (GIP) receptor (human), P48546
T1 chain: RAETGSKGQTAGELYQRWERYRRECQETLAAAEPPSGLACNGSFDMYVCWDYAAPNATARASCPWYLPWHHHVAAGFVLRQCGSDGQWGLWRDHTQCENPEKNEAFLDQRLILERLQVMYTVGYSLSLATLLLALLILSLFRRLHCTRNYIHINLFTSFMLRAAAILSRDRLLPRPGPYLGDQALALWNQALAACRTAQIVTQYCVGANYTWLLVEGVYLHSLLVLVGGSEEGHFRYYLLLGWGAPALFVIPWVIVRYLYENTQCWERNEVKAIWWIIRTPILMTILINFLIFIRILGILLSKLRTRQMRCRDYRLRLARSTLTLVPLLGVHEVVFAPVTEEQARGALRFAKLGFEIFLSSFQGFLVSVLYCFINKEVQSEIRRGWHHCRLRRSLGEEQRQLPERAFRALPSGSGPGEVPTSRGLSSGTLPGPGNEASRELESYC

B1: Example 118 (peptide)
peptide: Y[Aib]EGTFISDYSI[αMeL]LDKIRQ[Aib]DFVEYK([AEEA-AEEA-γGlu-C20 diacid])LEAGPSSGAPPPS-NH2
modifications: N-terminus assumed
SMILES: CC[C@H](C)[C@H](NC(=O)[C@H](CCCCN)NC(=O)[C@H](CC(=O)O)NC(=O)[C@H](CC(C)C)NC(=O)[C@](C)(CC(C)C)NC(=O)[C@@H](NC(=O)[C@H](CO)NC(=O)[C@H](Cc1ccc(O)cc1)NC(=O)[C@H](CC(=O)O)NC(=O)[C@H](CO)NC(=O)[C@@H](NC(=O)[C@H](Cc1ccccc1)NC(=O)[C@@H](NC(=O)CNC(=O)[C@H](CCC(=O)O)NC(=O)C(C)(C)NC(=O)[C@@H](N)Cc1ccc(O)cc1)[C@@H](C)O)[C@@H](C)CC)[C@@H](C)CC)C(=O)N[C@@H](CCCNC(=N)N)C(=O)N[C@@H](CCC(N)=O)C(=O)NC(C)(C)C(=O)N[C@@H](CC(=O)O)C(=O)N[C@@H](Cc1ccccc1)C(=O)N[C@H](C(=O)N[C@@H](CCC(=O)O)C(=O)N[C@@H](Cc1ccc(O)cc1)C(=O)N[C@@H](CCCCNC(=O)COCCOCCNC(=O)COCCOCCNC(=O)CC[C@H](NC(=O)CCCCCCCCCCCCCCCCCCC(=O)O)C(=O)O)C(=O)N[C@@H](CC(C)C)C(=O)N[C@@H](CCC(=O)O)C(=O)N[C@@H](C)C(=O)NCC(=O)N1CCC[C@H]1C(=O)N[C@@H](CO)C(=O)N[C@@H](CO)C(=O)NCC(=O)N[C@@H](C)C(=O)N1CCC[C@H]1C(=O)N1CCC[C@H]1C(=O)N1CCC[C@H]1C(=O)N[C@@H](CO)C(N)=O)C(C)C
B2: Example 108 (peptide)
peptide: Y[Aib]EGTFISDYSI[αMeL]LD[Orn]IHQ[Aib]DFVE[4Pal]K([AEEA-AEEA-γGlu-C20 diacid])LEGGPSSGAPPPS-NH2
modifications: N-terminus assumed
SMILES: CC[C@H](C)[C@H](NC(=O)[C@H](CCCN)NC(=O)[C@H](CC(=O)O)NC(=O)[C@H](CC(C)C)NC(=O)[C@](C)(CC(C)C)NC(=O)[C@@H](NC(=O)[C@H](CO)NC(=O)[C@H](Cc1ccc(O)cc1)NC(=O)[C@H](CC(=O)O)NC(=O)[C@H](CO)NC(=O)[C@@H](NC(=O)[C@H](Cc1ccccc1)NC(=O)[C@@H](NC(=O)CNC(=O)[C@H](CCC(=O)O)NC(=O)C(C)(C)NC(=O)[C@@H](N)Cc1ccc(O)cc1)[C@@H](C)O)[C@@H](C)CC)[C@@H](C)CC)C(=O)N[C@@H](Cc1c[nH]cn1)C(=O)N[C@@H](CCC(N)=O)C(=O)NC(C)(C)C(=O)N[C@@H](CC(=O)O)C(=O)N[C@@H](Cc1ccccc1)C(=O)N[C@H](C(=O)N[C@@H](CCC(=O)O)C(=O)N[C@@H](Cc1ccncc1)C(=O)N[C@@H](CCCCNC(=O)COCCOCCNC(=O)COCCOCCNC(=O)CC[C@H](NC(=O)CCCCCCCCCCCCCCCCCCC(=O)O)C(=O)O)C(=O)N[C@@H](CC(C)C)C(=O)N[C@@H](CCC(=O)O)C(=O)NCC(=O)NCC(=O)N1CCC[C@H]1C(=O)N[C@@H](CO)C(=O)N[C@@H](CO)C(=O)NCC(=O)N[C@@H](C)C(=O)N1CCC[C@H]1C(=O)N1CCC[C@H]1C(=O)N1CCC[C@H]1C(=O)N[C@@H](CO)C(N)=O)C(C)C
B3: Example 111 (peptide)
peptide: Y[Aib]EGTFISDYSI[αMeL]LD[Orn]IHQ[Aib]DFVE[4Pal]K([AEEA-AEEA-γGlu-C18 diacid])LEGGPSSGAPPPS-NH2
modifications: N-terminus assumed
SMILES: CC[C@H](C)[C@H](NC(=O)[C@H](CCCN)NC(=O)[C@H](CC(=O)O)NC(=O)[C@H](CC(C)C)NC(=O)[C@](C)(CC(C)C)NC(=O)[C@@H](NC(=O)[C@H](CO)NC(=O)[C@H](Cc1ccc(O)cc1)NC(=O)[C@H](CC(=O)O)NC(=O)[C@H](CO)NC(=O)[C@@H](NC(=O)[C@H](Cc1ccccc1)NC(=O)[C@@H](NC(=O)CNC(=O)[C@H](CCC(=O)O)NC(=O)C(C)(C)NC(=O)[C@@H](N)Cc1ccc(O)cc1)[C@@H](C)O)[C@@H](C)CC)[C@@H](C)CC)C(=O)N[C@@H](Cc1c[nH]cn1)C(=O)N[C@@H](CCC(N)=O)C(=O)NC(C)(C)C(=O)N[C@@H](CC(=O)O)C(=O)N[C@@H](Cc1ccccc1)C(=O)N[C@H](C(=O)N[C@@H](CCC(=O)O)C(=O)N[C@@H](Cc1ccncc1)C(=O)N[C@@H](CCCCNC(=O)COCCOCCNC(=O)COCCOCCNC(=O)CC[C@H](NC(=O)CCCCCCCCCCCCCCCCC(=O)O)C(=O)O)C(=O)N[C@@H](CC(C)C)C(=O)N[C@@H](CCC(=O)O)C(=O)NCC(=O)NCC(=O)N1CCC[C@H]1C(=O)N[C@@H](CO)C(=O)N[C@@H](CO)C(=O)NCC(=O)N[C@@H](C)C(=O)N1CCC[C@H]1C(=O)N1CCC[C@H]1C(=O)N1CCC[C@H]1C(=O)N[C@@H](CO)C(N)=O)C(C)C
B4: Example 110 (peptide)
peptide: Y[Aib]EGTFISDYSI[αMeL]LDKIHQ[Aib]DFVE[4Pal]K([AEEA-AEEA-γGlu-C18 diacid])LEGGPSSGAPPPS-NH2
modifications: N-terminus assumed
SMILES: CC[C@H](C)[C@H](NC(=O)[C@H](CCCCN)NC(=O)[C@H](CC(=O)O)NC(=O)[C@H](CC(C)C)NC(=O)[C@](C)(CC(C)C)NC(=O)[C@@H](NC(=O)[C@H](CO)NC(=O)[C@H](Cc1ccc(O)cc1)NC(=O)[C@H](CC(=O)O)NC(=O)[C@H](CO)NC(=O)[C@@H](NC(=O)[C@H](Cc1ccccc1)NC(=O)[C@@H](NC(=O)CNC(=O)[C@H](CCC(=O)O)NC(=O)C(C)(C)NC(=O)[C@@H](N)Cc1ccc(O)cc1)[C@@H](C)O)[C@@H](C)CC)[C@@H](C)CC)C(=O)N[C@@H](Cc1c[nH]cn1)C(=O)N[C@@H](CCC(N)=O)C(=O)NC(C)(C)C(=O)N[C@@H](CC(=O)O)C(=O)N[C@@H](Cc1ccccc1)C(=O)N[C@H](C(=O)N[C@@H](CCC(=O)O)C(=O)N[C@@H](Cc1ccncc1)C(=O)N[C@@H](CCCCNC(=O)COCCOCCNC(=O)COCCOCCNC(=O)CC[C@H](NC(=O)CCCCCCCCCCCCCCCCC(=O)O)C(=O)O)C(=O)N[C@@H](CC(C)C)C(=O)N[C@@H](CCC(=O)O)C(=O)NCC(=O)NCC(=O)N1CCC[C@H]1C(=O)N[C@@H](CO)C(=O)N[C@@H](CO)C(=O)NCC(=O)N[C@@H](C)C(=O)N1CCC[C@H]1C(=O)N1CCC[C@H]1C(=O)N1CCC[C@H]1C(=O)N[C@@H](CO)C(N)=O)C(C)C
B5: Example 114 (peptide)
peptide: Y[Aib]EGT[αMePhe(2-F)]ISDYSIALDKIHQ[Aib]DFVE[4Pal]K([AEEA-AEEA-γGlu-C20 diacid])LEQGPSSGAPPPS-NH2
modifications: N-terminus assumed
SMILES: CC[C@H](C)[C@H](NC(=O)[C@H](CO)NC(=O)[C@H](Cc1ccc(O)cc1)NC(=O)[C@H](CC(=O)O)NC(=O)[C@H](CO)NC(=O)[C@@H](NC(=O)[C@](C)(Cc1ccccc1F)NC(=O)[C@@H](NC(=O)CNC(=O)[C@H](CCC(=O)O)NC(=O)C(C)(C)NC(=O)[C@@H](N)Cc1ccc(O)cc1)[C@@H](C)O)[C@@H](C)CC)C(=O)N[C@@H](C)C(=O)N[C@@H](CC(C)C)C(=O)N[C@@H](CC(=O)O)C(=O)N[C@@H](CCCCN)C(=O)N[C@H](C(=O)N[C@@H](Cc1c[nH]cn1)C(=O)N[C@@H](CCC(N)=O)C(=O)NC(C)(C)C(=O)N[C@@H](CC(=O)O)C(=O)N[C@@H](Cc1ccccc1)C(=O)N[C@H](C(=O)N[C@@H](CCC(=O)O)C(=O)N[C@@H](Cc1ccncc1)C(=O)N[C@@H](CCCCNC(=O)COCCOCCNC(=O)COCCOCCNC(=O)CC[C@H](NC(=O)CCCCCCCCCCCCCCCCCCC(=O)O)C(=O)O)C(=O)N[C@@H](CC(C)C)C(=O)N[C@@H](CCC(=O)O)C(=O)N[C@@H](CCC(N)=O)C(=O)NCC(=O)N1CCC[C@H]1C(=O)N[C@@H](CO)C(=O)N[C@@H](CO)C(=O)NCC(=O)N[C@@H](C)C(=O)N1CCC[C@H]1C(=O)N1CCC[C@H]1C(=O)N1CCC[C@H]1C(=O)N[C@@H](CO)C(N)=O)C(C)C)[C@@H](C)CC
B6: Example 109 (peptide)
peptide: Y[Aib]EGTFISDYSI[αMeL]LDKIHQ[Aib]DFVE[4Pal]K([AEEA-AEEA-γGlu-C20 diacid])LEGGPSSGAPPPS-NH2
modifications: N-terminus assumed
SMILES: CC[C@H](C)[C@H](NC(=O)[C@H](CCCCN)NC(=O)[C@H](CC(=O)O)NC(=O)[C@H](CC(C)C)NC(=O)[C@](C)(CC(C)C)NC(=O)[C@@H](NC(=O)[C@H](CO)NC(=O)[C@H](Cc1ccc(O)cc1)NC(=O)[C@H](CC(=O)O)NC(=O)[C@H](CO)NC(=O)[C@@H](NC(=O)[C@H](Cc1ccccc1)NC(=O)[C@@H](NC(=O)CNC(=O)[C@H](CCC(=O)O)NC(=O)C(C)(C)NC(=O)[C@@H](N)Cc1ccc(O)cc1)[C@@H](C)O)[C@@H](C)CC)[C@@H](C)CC)C(=O)N[C@@H](Cc1c[nH]cn1)C(=O)N[C@@H](CCC(N)=O)C(=O)NC(C)(C)C(=O)N[C@@H](CC(=O)O)C(=O)N[C@@H](Cc1ccccc1)C(=O)N[C@H](C(=O)N[C@@H](CCC(=O)O)C(=O)N[C@@H](Cc1ccncc1)C(=O)N[C@@H](CCCCNC(=O)COCCOCCNC(=O)COCCOCCNC(=O)CC[C@H](NC(=O)CCCCCCCCCCCCCCCCCCC(=O)O)C(=O)O)C(=O)N[C@@H](CC(C)C)C(=O)N[C@@H](CCC(=O)O)C(=O)NCC(=O)NCC(=O)N1CCC[C@H]1C(=O)N[C@@H](CO)C(=O)N[C@@H](CO)C(=O)NCC(=O)N[C@@H](C)C(=O)N1CCC[C@H]1C(=O)N1CCC[C@H]1C(=O)N1CCC[C@H]1C(=O)N[C@@H](CO)C(N)=O)C(C)C

Target: T1, human glucose-dependent insulinotropic …
Assay: SPA, displacement of [125I]-GIP from hGIPR membranes, 0.1% bacitracin
For B1, the Ki was 0.0696 nM. With B2 the Ki was 0.134 nM. In the case of B3, the Ki is reported as 0.0871 nM. In the case of B4, the Ki is reported as 0.339 nM. For B5, the Ki was 0.121 nM. Binder B6 has a Ki of 0.117 nM.

From US20210032299A1
